# B1: Hsv2: Hsv2 protein (PROPPIN domain), GFP-tagged fusion (protein, UniProt P50079 1-448, looked up)
# SVP1-like protein 2: MDVRRPIREAVNNRRKPKFLSVSFNQDDSCFSVALENGFRIFNTDPLTSKLSKTFKESATNQSRGTGIGYTRMLYRTNYIALVGGGKRPRHALNKLIIWDDLLQKETITLKFMSSIKDVFLSRIHIVVVLENTIEIFQFQTNPQRICPILDIPPNGSVDYVVCSSKHLQSQASQSQSKILEIIAFPSNKCVGQIQVADLSQIKYNSQNPKESALLPTSIIKAHKNPIKLVRLNRQGTMVATCSVQGTLIRIFSTHNGTLIKEFRRGVDKADIYEMSFSPNGSKLAVLSNKQTLHIFQIFETTNTETNTPDHSRANGSSHPLKNYIPKGLWRPKYLDSVWSICNAHLKNPIFDAHRNDNSGDVTHDNEFYKDRCRIGWCQDSNNREQDDSLVLVWQNSGIWEKFVILEKEQQDSSKTHYSLNESLRNEDTKSAGEPTRWELVRESWREL
# modifications: GFP tag
# notes: Hsv2 protein (PROPPIN domain), GFP-tagged fusion
# B2: Akt PH domain: Akt Pleckstrin Homology (PH) domain (positions 6 to 110), fluorescently labelled, expressed in Escherichia coli (protein, UniProt P31749 6-110, looked up, fragment)
# chain: IVKEGWLHKRGEYIKTWRPRYFLLKNDGTFIGYKERPQDVDQREAPLNNFSVAQCQLMKTERPRPNTFIIRCLQWTTVIERTFHVETPEEREEWTTAIQTVADGL
# modifications: PH domain fluorescent label
# notes: Akt Pleckstrin Homology (PH) domain (positions 6 to 110), fluorescently labelled, expressed in Escherichia coli
# Legend:
# [1] = Liposome array cooperative membrane recruitment (NBI); conditions: GFP-tagged fusion, cooperative binding
# From the text: FIG. 13: High-throughput image processing and calculation of normalized binding intensity. (a) Image processing pipeline. Multiple images are acquired, one exposure time for Atto647 and multiple exposure times for GFP to capture broad range of binding intensities, from strong (short exp. times) to weak (longer exp. times). All images are then processed with CellProfiler software. After removal of background, the Atto647 image is used for segmentation to obtain a mask representing position of liposome membranes. In parallel the combination of overexposed pixels from both channels (Atto647 and GFP) is removed from every pair of Atto647 and GFP image. Subsequently, a mask is applied to all filtered (i.e. without overexposed pixels) images. Number of pixels matching with the mask and their mean fluorescence intensity is extracted from all images (i.e. both channels and every exposure time). Normalized binding intensity (NBI) is then calculated as a ratio of mean fluorescence intensity from GFP channel and mean fluorescence intensity from Atto647 channel for every pair of images. (b) Image segmentation and liposome counting. […] CellProfiler software is used to segment the image to retrieve a mask representing liposome membranes, and also to search for centers of liposomes that are then used for estimating a number of liposomes analyzed per image. […]
# [2] = Liposome array lipid-binding profile, normalized binding intensity (NBI); conditions: GFP-tagged fusion, cell lysate, 20 min incubation
# From the text: (§1) FIG. 13: High-throughput image processing and calculation of normalized binding intensity. (a) Image processing pipeline. Multiple images are acquired, one exposure time for Atto647 and multiple exposure times for GFP to capture broad range of binding intensities, from strong (short exp. times) to weak (longer exp. times). All images are then processed with CellProfiler software. After removal of background, the Atto647 image is used for segmentation to obtain a mask representing position of liposome membranes. In parallel the combination of overexposed pixels from both channels (Atto647 and GFP) is removed from every pair of Atto647 and GFP image. Subsequently, a mask is applied to all filtered (i.e. without overexposed pixels) images. Number of pixels matching with the mask and their mean fluorescence intensity is extracted from all images (i.e. both channels and every exposure time). Normalized binding intensity (NBI) is then calculated as a ratio of mean fluorescence intensity from GFP channel and mean fluorescence intensity from Atto647 channel for every pair of images. […] CellProfiler software is used to segment the image to retrieve a mask representing liposome membranes, and also to search for centers of liposomes that are then used for estimating a number of liposomes analyzed per image. […] Fluorescence signal was analysed via a high-throughput image analysis pipeline (FIG. 13). […]
# [3] = as above; conditions: GFP-tagged fusion, cell lysate, 20 min incubation; remark: listed apart in the source
# From the text: as §1
# [4] = as above; conditions: GFP-tagged fusion, cell lysate, 20 min incubation; remark: listed apart in the source
# From the text: as §1
# [5] = Akt PH domain binding to liposome array, wide-field fluorescence microscopy; conditions: E. coli lysate with fluorescently labelled domain, 30 minutes incubation, PBS wash
# From the text: (§2) The Akt Pleckstrin Homology (PH) domain (positions 6 to 110) is known to specifically bind to PI-(3,4)-P2 and PI-(3,4,5)-P3 and is thus, used as a model system to evaluate the specificity and sensitivity of assays performed using the liposome array. The fluorescently labelled Akt PH domain is expressed in Escherichia coli, cells are lysed by sonication and after a centrifugation at 10000 g, supernantant is recovered and injected in the microchip. Several liposome arrays each comprising liposomes formed from different lipids are produced. Liposomes either comprised POPC only, or a […] mol:mol mixture of POPC:DOPS, POPC:PI3P, POPC:PI4P, POPC:PI(3,4)P2, POPC:PI(3,5)P2, POPC:PI(4,5)P2, POPC:PI(3,4,5)P3 (all of which are purchased from Avanti polar lipids) as shown in FIG. 11(a) to (h), respectively.
# (§3) E. coli lysate comprising the fluorescently labelled Akt PH domain is applied to the liposome array and incubated 30 minutes and washed with PBS buffer before imaging.
# [6] = as above; conditions: E. coli lysate with fluorescently labelled domain, 30 minutes incubation, PBS wash; remark: listed apart in the source
# From the text: as §2, §3
Molecule,membrane recruitment [1],interaction confirmed by NBI profile [2],interaction confirmed by NBI profile [3],interaction confirmed by NBI profile [4],binding to liposomes [5],binding to liposomes [6]
"Pkcγ: protein kinase C-γ, GFP-tagged fusion",calcium-dependent recruitment,–,–,–,–,–
B1,–,interactions,interactions,–,–,–
B2,–,interactions,–,interactions,binds,binds

# Source: patent publication US20150309057A1, “Giant Liposome Array for High-throughput Lipid-Interaction Screening” (EUROPEAN MOLECULAR BIOLOGY LABORATORY (EMBL), priority 2012, published 2015)
